Measurements reported in paper PMC11096129.

T1: RAD52-OR (open ring) (Homo sapiens, UniProt P43351 1-418)
T1 sequence: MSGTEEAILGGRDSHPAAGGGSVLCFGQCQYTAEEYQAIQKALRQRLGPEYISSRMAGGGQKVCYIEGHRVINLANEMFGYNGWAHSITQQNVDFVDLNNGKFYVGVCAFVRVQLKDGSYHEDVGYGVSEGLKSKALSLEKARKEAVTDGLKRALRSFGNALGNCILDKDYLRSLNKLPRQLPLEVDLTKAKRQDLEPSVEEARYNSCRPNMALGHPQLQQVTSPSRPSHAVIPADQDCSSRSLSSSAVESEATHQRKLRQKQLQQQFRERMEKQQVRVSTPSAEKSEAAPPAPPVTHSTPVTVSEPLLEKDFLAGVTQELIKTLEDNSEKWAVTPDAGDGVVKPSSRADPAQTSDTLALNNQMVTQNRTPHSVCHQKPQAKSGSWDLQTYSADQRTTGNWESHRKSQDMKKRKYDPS

T2: RAD52(∆RID) (Homo sapiens, UniProt P43351 1-418, del239-290)
T2 sequence: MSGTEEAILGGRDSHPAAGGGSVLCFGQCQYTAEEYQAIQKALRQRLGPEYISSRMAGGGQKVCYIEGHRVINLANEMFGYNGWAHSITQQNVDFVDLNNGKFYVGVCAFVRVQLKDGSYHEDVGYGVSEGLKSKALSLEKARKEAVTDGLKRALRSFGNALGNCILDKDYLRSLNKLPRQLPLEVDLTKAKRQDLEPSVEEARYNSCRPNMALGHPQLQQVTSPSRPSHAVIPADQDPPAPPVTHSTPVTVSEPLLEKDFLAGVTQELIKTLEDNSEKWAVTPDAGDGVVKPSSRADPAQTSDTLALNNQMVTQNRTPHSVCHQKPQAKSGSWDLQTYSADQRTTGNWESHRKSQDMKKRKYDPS

T3: RAD52(∆C) (Homo sapiens, UniProt P43351 1-400, del401-418)
T3 sequence: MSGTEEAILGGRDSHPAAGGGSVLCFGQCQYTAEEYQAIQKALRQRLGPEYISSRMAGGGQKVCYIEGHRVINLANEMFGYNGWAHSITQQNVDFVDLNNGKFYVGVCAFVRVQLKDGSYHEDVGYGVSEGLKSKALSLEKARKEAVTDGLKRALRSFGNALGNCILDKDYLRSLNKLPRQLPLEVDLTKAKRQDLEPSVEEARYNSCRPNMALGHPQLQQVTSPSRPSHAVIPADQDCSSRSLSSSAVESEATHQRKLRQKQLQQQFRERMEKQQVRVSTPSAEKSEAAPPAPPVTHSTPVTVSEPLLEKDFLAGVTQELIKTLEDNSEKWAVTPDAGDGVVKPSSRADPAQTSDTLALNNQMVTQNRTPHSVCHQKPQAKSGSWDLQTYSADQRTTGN

T4: RAD52 NTD (Homo sapiens, UniProt P43351 1-209, del210-418)
T4 sequence: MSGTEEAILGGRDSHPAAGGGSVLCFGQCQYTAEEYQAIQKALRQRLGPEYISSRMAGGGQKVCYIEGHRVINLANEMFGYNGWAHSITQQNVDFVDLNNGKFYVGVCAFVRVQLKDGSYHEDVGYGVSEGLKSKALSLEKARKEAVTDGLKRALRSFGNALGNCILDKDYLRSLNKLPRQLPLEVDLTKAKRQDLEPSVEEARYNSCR


Legend:
RPA [1] = target: T5, RPA (Homo sapiens, UniProt P27694;P15927;P35244 1-616;1-270;1-121); assay: cryo-EM (3.2 Å, trimeric core); 2 mM Mg(OAc)2; FA: 25 mM HEPES pH 8.0, 0.2 M KOAc, 10% glycerol, 0.25 mM TCEP, 1 mM Mg(OAc)2, 0.01% Brij-35, 25 °C, 10 nM DNA; BLI: 25 mM HEPES pH 8.0, 200 mM KOAc, 0.01% Tween-20, 1 mM Mg(OAc)2, 0.25 mM TCEP, 25 °C; conditions: protein: recombinant; tags: 10xHis on RPA3; copies: 1;1;1; single strand
T5 sequence (P27694 whole entry, chain 1 of 3): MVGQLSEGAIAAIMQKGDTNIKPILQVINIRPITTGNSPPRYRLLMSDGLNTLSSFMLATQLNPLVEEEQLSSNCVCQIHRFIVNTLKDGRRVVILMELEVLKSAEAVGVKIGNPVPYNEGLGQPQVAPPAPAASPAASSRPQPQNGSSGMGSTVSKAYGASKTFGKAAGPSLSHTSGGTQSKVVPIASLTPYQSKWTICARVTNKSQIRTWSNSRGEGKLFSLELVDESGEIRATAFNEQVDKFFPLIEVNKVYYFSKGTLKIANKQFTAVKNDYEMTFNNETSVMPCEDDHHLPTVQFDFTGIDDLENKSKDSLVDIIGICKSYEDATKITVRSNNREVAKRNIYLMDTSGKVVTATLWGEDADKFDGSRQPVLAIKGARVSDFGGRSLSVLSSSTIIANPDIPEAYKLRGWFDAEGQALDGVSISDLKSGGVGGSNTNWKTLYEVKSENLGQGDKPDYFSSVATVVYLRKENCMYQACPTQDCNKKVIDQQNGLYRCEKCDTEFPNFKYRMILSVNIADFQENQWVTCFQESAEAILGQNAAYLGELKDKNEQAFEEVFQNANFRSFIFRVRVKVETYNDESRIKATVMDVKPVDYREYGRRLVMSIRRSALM
T5 sequence (P15927 whole entry, chain 2 of 3): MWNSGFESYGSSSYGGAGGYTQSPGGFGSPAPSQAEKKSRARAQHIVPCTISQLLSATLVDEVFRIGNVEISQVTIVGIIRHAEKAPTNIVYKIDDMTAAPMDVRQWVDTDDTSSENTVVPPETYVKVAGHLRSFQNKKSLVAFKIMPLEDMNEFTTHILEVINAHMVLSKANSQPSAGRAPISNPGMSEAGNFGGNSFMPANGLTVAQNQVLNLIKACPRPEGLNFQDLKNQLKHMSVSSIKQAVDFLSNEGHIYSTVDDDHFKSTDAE
T5 sequence (P35244 whole entry, chain 3 of 3): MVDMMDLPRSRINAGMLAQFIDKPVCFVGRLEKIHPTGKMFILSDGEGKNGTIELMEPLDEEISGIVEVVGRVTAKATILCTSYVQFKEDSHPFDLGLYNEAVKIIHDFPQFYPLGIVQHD

RAD52-OR (open ring) = target: T1, RAD52-OR (open ring); assay: fluorescence anisotropy; 1 mM Mg(OAc)2; ring concentration (10-mer); FA: 25 mM HEPES pH 8.0, 0.2 M KOAc, 10% glycerol, 0.25 mM TCEP, 1 mM Mg(OAc)2, 0.01% Brij-35, 25 °C, 10 nM DNA; BLI: 25 mM HEPES pH 8.0, 200 mM KOAc, 0.01% Tween-20, 1 mM Mg(OAc)2, 0.25 mM TCEP, 25 °C; conditions: protein: recombinant; tags: none (tags removed); chain copies: 10; label: 5' 6-FAM; single strand
RPA [2] = target: T5, RPA; assay: fluorescence anisotropy; 1 mM Mg(OAc)2; FA: 25 mM HEPES pH 8.0, 0.2 M KOAc, 10% glycerol, 0.25 mM TCEP, 1 mM Mg(OAc)2, 0.01% Brij-35, 25 °C, 10 nM DNA; BLI: 25 mM HEPES pH 8.0, 200 mM KOAc, 0.01% Tween-20, 1 mM Mg(OAc)2, 0.25 mM TCEP, 25 °C; conditions: protein: recombinant; tags: 10xHis on RPA3; copies: 1;1;1; label: 5' 6-FAM; single strand
RAD52(∆RID) = target: T2, RAD52(∆RID); assay: as above; conditions: protein: recombinant; tags: none (tags removed); label: 5' 6-FAM; single strand
RAD52(∆C) = target: T3, RAD52(∆C); assay: as above; conditions: protein: recombinant; tags: none (tags removed); chain copies: 11; label: 5' 6-FAM; single strand
RPA(∆WHD) = RPA(∆WHD) (Homo sapiens, UniProt P27694;P15927;P35244 1-616;1-206;1-121); assay: as above; conditions: protein: recombinant; tags: 10xHis on RPA3; copies: 1;1;1; label: 5' 6-FAM; single strand
Chain of RPA(∆WHD) (P27694 whole entry, chain 1 of 3): as the sequence (P27694 whole entry, chain 1 of 3) above
Chain of RPA(∆WHD) (P15927 1-206, chain 2 of 3): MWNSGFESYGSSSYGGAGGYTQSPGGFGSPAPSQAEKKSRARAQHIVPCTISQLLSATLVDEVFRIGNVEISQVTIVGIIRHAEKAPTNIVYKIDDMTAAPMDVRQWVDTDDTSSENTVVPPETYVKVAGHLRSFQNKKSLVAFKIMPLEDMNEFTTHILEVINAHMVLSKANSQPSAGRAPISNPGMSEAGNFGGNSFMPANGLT
Chain of RPA(∆WHD) (P35244 whole entry, chain 3 of 3): as the sequence (P35244 whole entry, chain 3 of 3) above

RAD52 NTD = target: T4, RAD52 NTD; assay: fluorescence anisotropy; 1 mM Mg(OAc)2; ring concentration (11-mer); FA: 25 mM HEPES pH 8.0, 0.2 M KOAc, 10% glycerol, 0.25 mM TCEP, 1 mM Mg(OAc)2, 0.01% Brij-35, 25 °C, 10 nM DNA; BLI: 25 mM HEPES pH 8.0, 200 mM KOAc, 0.01% Tween-20, 1 mM Mg(OAc)2, 0.25 mM TCEP, 25 °C; conditions: protein: recombinant; tags: none (tags removed); chain copies: 11; label: 5' 6-FAM; single strand

Binder | binding result (RPA [1]) | Kd (RAD52-OR (open ring)) | Kd (RPA [2]) | Kd (RAD52(∆RID)) | Kd (RAD52(∆C)) | Kd (RPA(∆WHD)) | Kd (RAD52 NTD)
CGGCAGCGTTGACTAGACGGATTCGATA (ssDNA) [SSA7 (28 nt)] | binds | – | – | – | – | – | –
TATCGAATCCGTCTAGTCAACGCTGCCGAATTCTACCAGT (ssDNA) [FAM-SSA4 (40 nt)] | – | 0.3 ± 0.1 nM | 3.6 ± 0.5 nM | 0.7 ± 0.2 nM | 0.2 ± 0.2 nM | 3.4 ± 0.9 nM | 3.2 ± 0.6 nM
